Laboratory results reported in US20110052582A1 (Hoffmann-La Roche, published 2011).

T1: Soluble CDCP1 extracellular domain (CDCP1-ECD) (SEQ ID NO:30) fused to Streptavidin Binding Protein (SBP) (human, UniProt Q9H5V8 30-663)
T1 construct: also called SBP-CDCP1-ECD
T1 sequence: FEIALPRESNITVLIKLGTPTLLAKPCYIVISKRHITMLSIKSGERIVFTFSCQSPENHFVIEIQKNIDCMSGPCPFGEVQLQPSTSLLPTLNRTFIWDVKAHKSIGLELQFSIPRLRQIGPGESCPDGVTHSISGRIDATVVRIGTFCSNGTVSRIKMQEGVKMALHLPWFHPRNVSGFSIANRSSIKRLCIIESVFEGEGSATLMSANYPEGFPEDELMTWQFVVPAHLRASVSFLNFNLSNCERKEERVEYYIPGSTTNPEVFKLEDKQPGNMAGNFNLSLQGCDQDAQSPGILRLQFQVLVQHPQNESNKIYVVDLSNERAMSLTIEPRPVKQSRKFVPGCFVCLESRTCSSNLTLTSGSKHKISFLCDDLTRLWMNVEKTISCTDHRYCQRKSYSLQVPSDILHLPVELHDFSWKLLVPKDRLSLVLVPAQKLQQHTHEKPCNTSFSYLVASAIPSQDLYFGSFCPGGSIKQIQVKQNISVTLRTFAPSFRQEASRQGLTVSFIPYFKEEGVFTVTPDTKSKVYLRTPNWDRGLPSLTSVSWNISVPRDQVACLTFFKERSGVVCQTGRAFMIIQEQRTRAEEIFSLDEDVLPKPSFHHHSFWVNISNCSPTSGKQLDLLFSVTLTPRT


Target: T1, Soluble CDCP1 extracellular domain …
Assay: ELISA on captured SBP-CDCP1-ECD, ratio relative to chimeric CUB4 (chHC4)
Method in brief: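 Streptavidin plates coated overnight at 2–8° C with SBP-CDCP1-ECD HEK293 supernatant (1:15–1:40). Antibodies, undiluted or 12-step dilution, bound 90 min at room temperature; HRP anti-human IgG 1 h, ABTS read at 405/492 nm, signal expressed relative to chimeric chHC4 reference.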

Binder	binding result	relative binding ratio
hHC4-b / hLC4-I (antibody, V domains shown) VH: EVQLVESGGGLVKPGGSLRLSCAASGFTFNSYSMNWVRQAPGKGLEWVSSISSGGSYIYYADSVKGRFTISRDNAKNSLYLQMNSLRAEDTAVYYCARHPDYDGVWFAYWGQGTLVTVSS VL: EIVMTQSPATLSLSPGERATLSCRASSSVFYLSWYQQKPGQAPRLWIYDTSKLASGIPARFSGSGSGTDFTLTISSLQPEDFAVYYCQQWNSNPPTFGGGTKVEIK	no binding	–
hHC4-c / hLC4-I (antibody, V domains shown) VH: EVQLVESGGGLVQPGGSLRLSCAASGFTFNSYGMSWVRQAPGKGLEWVATISSGGSYTYYPDSVKGRFTISRDNAKNSLYLQMNSLRAEDTAVYYCARHPDYDGVWFAYWGQGTLVTVSS VL: EIVMTQSPATLSLSPGERATLSCRASSSVFYLSWYQQKPGQAPRLWIYDTSKLASGIPARFSGSGSGTDFTLTISSLQPEDFAVYYCQQWNSNPPTFGGGTKVEIK	no binding	–
hHC4-c / hLC4-J (antibody, V domains shown) VH: EVQLVESGGGLVQPGGSLRLSCAASGFTFNSYGMSWVRQAPGKGLEWVATISSGGSYTYYPDSVKGRFTISRDNAKNSLYLQMNSLRAEDTAVYYCARHPDYDGVWFAYWGQGTLVTVSS VL: EIVMTQSPATLSLSPGERATMSCRASSSVFYLHWYQQKPGQAPRLWIYDTSKLASGIPARFSGSGSGTDFTLTISSLQPEDFAVYYCQQWNSNPPTFGGGTKVEIK	–	0.42
hHC4-c / hLC4-M (antibody, V domains shown) VH: EVQLVESGGGLVQPGGSLRLSCAASGFTFNSYGMSWVRQAPGKGLEWVATISSGGSYTYYPDSVKGRFTISRDNAKNSLYLQMNSLRAEDTAVYYCARHPDYDGVWFAYWGQGTLVTVSS VL: EIVLTQSPATLSLSPGERATMSCGASSSVFYLHWYQQKPGLAPRLWIYDTSKLASGIPDRFSGSGSGTDFTLTISRLEPEDFAVYYCQQWNSNPPTFGGGTKVEIK	–	0.71
hHC4-b / hLC4-M (antibody, V domains shown) VH: EVQLVESGGGLVKPGGSLRLSCAASGFTFNSYSMNWVRQAPGKGLEWVSSISSGGSYIYYADSVKGRFTISRDNAKNSLYLQMNSLRAEDTAVYYCARHPDYDGVWFAYWGQGTLVTVSS VL: EIVLTQSPATLSLSPGERATMSCGASSSVFYLHWYQQKPGLAPRLWIYDTSKLASGIPDRFSGSGSGTDFTLTISRLEPEDFAVYYCQQWNSNPPTFGGGTKVEIK	no binding	–
hHC4-b / hLC4-L2 (antibody, V domains shown) VH: EVQLVESGGGLVKPGGSLRLSCAASGFTFNSYSMNWVRQAPGKGLEWVSSISSGGSYIYYADSVKGRFTISRDNAKNSLYLQMNSLRAEDTAVYYCARHPDYDGVWFAYWGQGTLVTVSS VL: EIVLTQSPATLSLSPGERATMSCSVSSSVFYLHWYQQKPGQAPRLWIYDTSKLASGIPARFSGSGSGTDFTLTISSLEPEDFAVYYCQQWNSNPPTFGGGTKVEIK	no binding	–
hHC4-b / hLC4-K (antibody, V domains shown) VH: EVQLVESGGGLVKPGGSLRLSCAASGFTFNSYSMNWVRQAPGKGLEWVSSISSGGSYIYYADSVKGRFTISRDNAKNSLYLQMNSLRAEDTAVYYCARHPDYDGVWFAYWGQGTLVTVSS VL: EIVLTQSPATLSLSPGERATLSCRASSSVFYLHWYQQKPGQAPRLWIYDTSKLASGIPARFSGSGSGTDFTLTISSLEPEDFAVYYCQQWNSNPPTFGGGTKVEIK	no binding	–
hHC4-c / hLC4-a (antibody, V domains shown) VH: EVQLVESGGGLVQPGGSLRLSCAASGFTFNSYGMSWVRQAPGKGLEWVATISSGGSYTYYPDSVKGRFTISRDNAKNSLYLQMNSLRAEDTAVYYCARHPDYDGVWFAYWGQGTLVTVSS VL: EIVLTQSPATLSLSPGERATLSCSVSSSVFYVHWYQQKPGQAPRLLIYDTSKLASGIPARFSGSGSGTDFTLTISSLEPEDFAVYYCQQWNSNPPTFGGGTKVEIK	–	0.34
hHC4-c / hLC4-b (antibody, V domains shown) VH: EVQLVESGGGLVQPGGSLRLSCAASGFTFNSYGMSWVRQAPGKGLEWVATISSGGSYTYYPDSVKGRFTISRDNAKNSLYLQMNSLRAEDTAVYYCARHPDYDGVWFAYWGQGTLVTVSS VL: EIVLTQSPATLSLSPGERATLSCSVSSSVFYVHWYQQKPGQAPRLLIYDTSKLASGIPARFSGSGSGTDYTLTISSLEPEDFAVYYCQQWNSNPPTFGGGTKVEIK	–	0.28
hHC4-c / hLC4-L (antibody, V domains shown) VH: EVQLVESGGGLVQPGGSLRLSCAASGFTFNSYGMSWVRQAPGKGLEWVATISSGGSYTYYPDSVKGRFTISRDNAKNSLYLQMNSLRAEDTAVYYCARHPDYDGVWFAYWGQGTLVTVSS VL: EIVLTQSPATLSLSPGERATMSCRASSSVFYLHWYQQKPGQAPRLWIYDTSKLASGIPARFSGSGSGTDFTLTISSLEPEDFAVYYCQQWNSNPPTFGGGTKVEIK	–	0.45
hHC4-b / hLC4-J (antibody, V domains shown) VH: EVQLVESGGGLVKPGGSLRLSCAASGFTFNSYSMNWVRQAPGKGLEWVSSISSGGSYIYYADSVKGRFTISRDNAKNSLYLQMNSLRAEDTAVYYCARHPDYDGVWFAYWGQGTLVTVSS VL: EIVMTQSPATLSLSPGERATMSCRASSSVFYLHWYQQKPGQAPRLWIYDTSKLASGIPARFSGSGSGTDFTLTISSLQPEDFAVYYCQQWNSNPPTFGGGTKVEIK	no binding	–

Results, then the binder that gave them:

binding result	relative binding ratio	Binder
no binding	–	hHC4-b / hLC4-b (antibody, V domains shown) VH: EVQLVESGGGLVKPGGSLRLSCAASGFTFNSYSMNWVRQAPGKGLEWVSSISSGGSYIYYADSVKGRFTISRDNAKNSLYLQMNSLRAEDTAVYYCARHPDYDGVWFAYWGQGTLVTVSS VL: EIVLTQSPATLSLSPGERATLSCSVSSSVFYVHWYQQKPGQAPRLLIYDTSKLASGIPARFSGSGSGTDYTLTISSLEPEDFAVYYCQQWNSNPPTFGGGTKVEIK
–	0.53	hHC4-c / hLC4-L2 (antibody, V domains shown) VH: EVQLVESGGGLVQPGGSLRLSCAASGFTFNSYGMSWVRQAPGKGLEWVATISSGGSYTYYPDSVKGRFTISRDNAKNSLYLQMNSLRAEDTAVYYCARHPDYDGVWFAYWGQGTLVTVSS VL: EIVLTQSPATLSLSPGERATMSCSVSSSVFYLHWYQQKPGQAPRLWIYDTSKLASGIPARFSGSGSGTDFTLTISSLEPEDFAVYYCQQWNSNPPTFGGGTKVEIK
no binding	–	hHC4-b / hLC4-a (antibody, V domains shown) VH: EVQLVESGGGLVKPGGSLRLSCAASGFTFNSYSMNWVRQAPGKGLEWVSSISSGGSYIYYADSVKGRFTISRDNAKNSLYLQMNSLRAEDTAVYYCARHPDYDGVWFAYWGQGTLVTVSS VL: EIVLTQSPATLSLSPGERATLSCSVSSSVFYVHWYQQKPGQAPRLLIYDTSKLASGIPARFSGSGSGTDFTLTISSLEPEDFAVYYCQQWNSNPPTFGGGTKVEIK
–	0.83	hHC4-c / hLC4-K (antibody, V domains shown) VH: EVQLVESGGGLVQPGGSLRLSCAASGFTFNSYGMSWVRQAPGKGLEWVATISSGGSYTYYPDSVKGRFTISRDNAKNSLYLQMNSLRAEDTAVYYCARHPDYDGVWFAYWGQGTLVTVSS VL: EIVLTQSPATLSLSPGERATLSCRASSSVFYLHWYQQKPGQAPRLWIYDTSKLASGIPARFSGSGSGTDFTLTISSLEPEDFAVYYCQQWNSNPPTFGGGTKVEIK
no binding	–	hHC4-b / hLC4-L (antibody, V domains shown) VH: EVQLVESGGGLVKPGGSLRLSCAASGFTFNSYSMNWVRQAPGKGLEWVSSISSGGSYIYYADSVKGRFTISRDNAKNSLYLQMNSLRAEDTAVYYCARHPDYDGVWFAYWGQGTLVTVSS VL: EIVLTQSPATLSLSPGERATMSCRASSSVFYLHWYQQKPGQAPRLWIYDTSKLASGIPARFSGSGSGTDFTLTISSLEPEDFAVYYCQQWNSNPPTFGGGTKVEIK
